Test results as given in the Immune Epitope Database (IEDB).

Legend:
HLA-A*11:01 = assay: IEDB peptide-MHC binding, purified MHC/direct/fluorescence; filed as Kd, often an IC50 or EC50 that approximates it; ≥ and ≤ were set here for values at or beyond the usual limits of such assays
HLA-A*01:01 = assay: as above
HLA-B*07:02 [1] = assay: as above
HLA-B*39:01 = assay: as above
HLA-B*18:01 [2] = assay: as above
HLA-B*15:01 [3] = assay: as above
HLA-B*57:01 = assay: as above
HLA-B*58:01 = assay: as above
HLA-B*15:09 [4] = assay: as above
HLA-A*31:01 = assay: as above
HLA-B*08:01 = assay: as above
HLA-A*68:02 [5] = assay: IEDB peptide-MHC binding, purified MHC/competitive/fluorescence; filed as Kd, often an IC50 or EC50 that approximates it; ≥ and ≤ were set here for values at or beyond the usual limits of such assays; settings: source organism: Influenza A virus H3N2
HLA-A*02:01 [6] = assay: as above; settings: source organism: Influenza A virus H3N2
HLA-A*02:03 = assay: as above; settings: source organism: Influenza A virus H3N2
HLA-A*02:06 = assay: as above
HLA-C*05:01 = assay: IEDB peptide-MHC binding, purified MHC/direct/fluorescence; filed as Kd, often an IC50 or EC50 that approximates it; ≥ and ≤ were set here for values at or beyond the usual limits of such assays; settings: source organism: Bacillus anthracis str. A0389
HLA-B*27:05 [7] = assay: as above
HLA-B*08:02 = assay: as above
HLA-B*40:01 = assay: as above
HLA-B*48:01 = assay: as above
HLA-A*03:01 = assay: as above
HLA-B*46:01 = assay: as above
HLA-B*15:17 [8] = assay: as above
HLA-B*15:01 [9] = assay: IEDB peptide-MHC binding, purified MHC/competitive/fluorescence; filed as Kd, often an IC50 or EC50 that approximates it; ≥ and ≤ were set here for values at or beyond the usual limits of such assays
HLA-B*15:09 [10] = assay: as above; settings: source organism: Bacillus anthracis str. A0389
HLA-A*26:01 [11] = assay: as above; settings: source organism: Bacillus anthracis str. A0389
HLA-B*07:02 [12] = assay: IEDB peptide-MHC binding, purified MHC/competitive/radioactivity; ≥ and ≤ were set here for values at or beyond the usual limits of such assays; settings: source organism: dengue virus type 1
HLA-B*35:01 [13] = assay: IEDB peptide-MHC binding, purified MHC/competitive/radioactivity; filed as Kd, often an IC50 or EC50 that approximates it; ≥ and ≤ were set here for values at or beyond the usual limits of such assays; settings: source organism: Dengue virus 1 Brazil/97-11/1997
HLA-A*68:02 [14] = assay: IEDB peptide-MHC binding, purified MHC/direct/fluorescence; filed as Kd, often an IC50 or EC50 that approximates it; ≥ and ≤ were set here for values at or beyond the usual limits of such assays
HLA-A*02:01 [15] = assay: as above
HLA-A*26:03 = assay: IEDB peptide-MHC binding, purified MHC/competitive/fluorescence; filed as Kd, often an IC50 or EC50 that approximates it; ≥ and ≤ were set here for values at or beyond the usual limits of such assays; settings: source organism: Orthomarburgvirus marburgense
HLA-B*40:02 = assay: IEDB peptide-MHC binding, cellular MHC/competitive/fluorescence; ≥ and ≤ were set here for values at or beyond the usual limits of such assays; settings: source organism: Homo sapiens
HLA-A*26:02 = assay: IEDB peptide-MHC binding, purified MHC/direct/fluorescence; filed as Kd, often an IC50 or EC50 that approximates it; ≥ and ≤ were set here for values at or beyond the usual limits of such assays; settings: source organism: Variola virus
HLA-A*69:01 = assay: as above; settings: source organism: Cowpox virus
HLA-A*26:01 [16] = assay: as above; settings: source organism: Variola virus
HLA-B*27:05 [17] = assay: IEDB peptide-MHC binding, purified MHC/competitive/fluorescence; filed as Kd, often an IC50 or EC50 that approximates it; ≥ and ≤ were set here for values at or beyond the usual limits of such assays; settings: source organism: Vaccinia virus Copenhagen
HLA-B*07:02 [18] = assay: as above; settings: source organism: Vaccinia virus Copenhagen
HLA-B*18:01 [19] = assay: as above; settings: source organism: Vaccinia virus Copenhagen
HLA-B*35:01 [20] = assay: as above; settings: source organism: Vaccinia virus Copenhagen
HLA-B*15:17 [21] = assay: as above; settings: source organism: Vaccinia virus Copenhagen
[22] = source organism: Influenza A virus (A/equine/New York/1/1999(H3N8))
[23] = source organism: Influenza A virus(A/swine/Shandong/fNY/2003(H9N2))
[24] = source organism: Bacillus anthracis
[25] = source organism: Bacillus anthracis str. A0193
[26] = source organism: Bacillus anthracis str. A0389
[27] = source organism: Marburg virus - Musoke, Kenya, 1980

## ELVRKTRFL
HLA-A*11:01; [22]
  Kd: ≥ 20 µM
HLA-A*01:01; [22]
  Kd: ≥ 20 µM
HLA-B*07:02 [1]; [22]
  Kd: ≥ 20 µM
HLA-B*39:01; [23]
  Kd: ≥ 20 µM
HLA-B*18:01 [2]; [22]
  Kd: ≥ 20 µM
HLA-B*15:01 [3]; [22]
  Kd: ≥ 20 µM
HLA-B*57:01; [22]
  Kd: ≥ 20 µM
HLA-B*58:01; [22]
  Kd: ≥ 20 µM
HLA-B*15:09 [4]; [23]
  Kd: ≥ 20 µM
HLA-A*31:01; [22]
  Kd: ≥ 20 µM
HLA-B*08:01; [22]
  Kd: 1.62 µM
HLA-A*68:02 [5]
  Kd: 1.43 µM
HLA-A*02:01 [6]
  Kd: ≥ 20 µM
HLA-A*02:03
  Kd: ≥ 20 µM
HLA-A*02:06; source organism: Influenza A virus H3N2
  Kd: 2.88 µM

## FTDNNELEF
HLA-C*05:01
  Kd: ≤ 0.001 µM
HLA-B*27:05 [7]; [24]
  Kd: ≥ 20 µM
HLA-A*11:01; [24]
  Kd: ≥ 20 µM
HLA-B*08:02; [25]
  Kd: ≥ 20 µM
HLA-B*40:01; [24]
  Kd: ≥ 20 µM
HLA-A*01:01; [24]
  Kd: 0.002 µM
HLA-B*48:01; [24]
  Kd: ≥ 20 µM
HLA-B*39:01; [25]
  Kd: ≥ 20 µM
HLA-B*57:01; [24]
  Kd: ≥ 20 µM
HLA-A*03:01; [24]
  Kd: ≥ 20 µM
HLA-B*58:01; [24]
  Kd: 0.212 µM
HLA-B*46:01; [24]
  Kd: ≥ 20 µM
HLA-B*15:17 [8]; [24]
  Kd: 0.003 µM
HLA-A*31:01; [24]
  Kd: ≥ 20 µM
HLA-B*15:01 [9]; [26]
  Kd: ≥ 20 µM
HLA-A*02:06; [26]
  Kd: 0.0002 µM
HLA-B*15:09 [10]
  Kd: ≥ 20 µM
HLA-A*26:01 [11]
  Kd: ≥ 20 µM

## HPASAWTLYA
HLA-B*07:02 [12]
  IC50: 0.00615 µM
HLA-B*35:01 [13]
  Kd: 0.572 µM

## IISTNTLGK
HLA-A*68:02 [14]; [27]
  Kd: ≥ 20 µM
HLA-B*27:05 [7]; [27]
  Kd: ≥ 20 µM
HLA-A*11:01; [27]
  Kd: 0.129 µM
HLA-A*02:01 [15]; [27]
  Kd: ≥ 20 µM
HLA-B*08:02; source organism: Ravn virus - Ravn, Kenya, 1987
  Kd: ≥ 20 µM
HLA-B*40:01; [27]
  Kd: ≥ 20 µM
HLA-A*01:01; [27]
  Kd: ≥ 20 µM
HLA-B*07:02 [1]; [27]
  Kd: ≥ 20 µM
HLA-B*48:01; [27]
  Kd: ≥ 20 µM
HLA-B*18:01 [2]; [27]
  Kd: ≥ 20 µM
HLA-B*15:01 [3]; [27]
  Kd: ≥ 20 µM
HLA-B*57:01; [27]
  Kd: ≥ 20 µM
HLA-A*03:01; [27]
  Kd: 0.249 µM
HLA-B*58:01; [27]
  Kd: ≥ 20 µM
HLA-B*46:01; [27]
  Kd: ≥ 20 µM
HLA-B*15:17 [8]; [27]
  Kd: ≥ 20 µM
HLA-A*31:01; [27]
  Kd: ≥ 20 µM
HLA-A*26:03
  Kd: ≥ 20 µM

## REGSFRVTT
HLA-B*40:02
  IC50: 1.9 µM

## YHRFGLYRL
HLA-A*68:02 [14]; source organism: Cowpox virus
  Kd: ≥ 20 µM
HLA-A*02:01 [15]; source organism: Cowpox virus
  Kd: ≥ 20 µM
HLA-B*08:02; source organism: Variola virus
  Kd: ≥ 20 µM
HLA-B*40:01; source organism: Cowpox virus
  Kd: ≥ 20 µM
HLA-A*01:01; source organism: Cowpox virus
  Kd: ≥ 20 µM
HLA-B*39:01; source organism: Cowpox virus
  Kd: 5.05 µM
HLA-A*26:02
  Kd: ≥ 20 µM
HLA-B*57:01; source organism: Cowpox virus
  Kd: ≥ 20 µM
HLA-A*69:01
  Kd: ≥ 20 µM
HLA-B*58:01; source organism: Cowpox virus
  Kd: ≥ 20 µM
HLA-B*46:01; source organism: Cowpox virus
  Kd: ≥ 20 µM
HLA-B*15:09 [4]; source organism: Variola virus
  Kd: 2.43 µM
HLA-A*26:01 [16]
  Kd: ≥ 20 µM
HLA-B*08:01; source organism: Variola virus
  Kd: ≥ 20 µM
HLA-B*27:05 [17]
  Kd: ≥ 20 µM
HLA-B*07:02 [18]
  Kd: ≥ 20 µM
HLA-B*18:01 [19]
  Kd: 2.66 µM
HLA-B*15:01 [9]; source organism: Vaccinia virus Copenhagen
  Kd: ≥ 20 µM
HLA-B*35:01 [20]
  Kd: 2.7 µM
HLA-B*15:17 [21]
  Kd: ≥ 20 µM
